Measurements taken from US20140213513A1 (Sanofi, priority 2012, published 2014).
*1 amine or outer side, *2 acyl side, *3 side chain or, on linkers, in order; H or OH if unused. Where no end group is shown, it is not given here. Side-chain parts run from the residue outwards. [ ]: non-standard residue; d: D form. The star is where a group is joined. γGlu = O=C(O)[C@H](CCC(=O)[*:2])N[*:1]; Stearoyl = CCCCCCCCCCCCCCCCCC(=O)*; Palmitoyl = CCCCCCCCCCCCCCCC(=O)*; Aib = CC(C)(N)C(=O)O

Experiments:
Assay in all cases: cell-based or functional assay
human GIP receptor = molecular target: T1, human GIP receptor (human, UniProt P48546 22-466)
T1 sequence (looked up): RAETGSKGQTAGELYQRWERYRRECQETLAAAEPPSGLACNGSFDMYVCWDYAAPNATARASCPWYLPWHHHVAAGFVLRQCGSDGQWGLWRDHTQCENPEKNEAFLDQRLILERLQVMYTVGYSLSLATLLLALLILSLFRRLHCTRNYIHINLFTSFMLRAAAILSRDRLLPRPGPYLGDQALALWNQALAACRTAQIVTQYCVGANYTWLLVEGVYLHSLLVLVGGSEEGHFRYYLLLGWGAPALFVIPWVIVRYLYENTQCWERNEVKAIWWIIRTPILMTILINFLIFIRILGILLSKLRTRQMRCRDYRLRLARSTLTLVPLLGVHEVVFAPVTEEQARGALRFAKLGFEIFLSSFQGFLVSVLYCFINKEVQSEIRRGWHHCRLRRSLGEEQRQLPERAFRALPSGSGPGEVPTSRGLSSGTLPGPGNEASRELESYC

human GLP-1 receptor = human GLP-1 receptor (human, UniProt P43220 24-463)
human glucagon receptor = human glucagon receptor (human, UniProt P47871 26-477)
Sequence of human glucagon receptor (P47871 26-477): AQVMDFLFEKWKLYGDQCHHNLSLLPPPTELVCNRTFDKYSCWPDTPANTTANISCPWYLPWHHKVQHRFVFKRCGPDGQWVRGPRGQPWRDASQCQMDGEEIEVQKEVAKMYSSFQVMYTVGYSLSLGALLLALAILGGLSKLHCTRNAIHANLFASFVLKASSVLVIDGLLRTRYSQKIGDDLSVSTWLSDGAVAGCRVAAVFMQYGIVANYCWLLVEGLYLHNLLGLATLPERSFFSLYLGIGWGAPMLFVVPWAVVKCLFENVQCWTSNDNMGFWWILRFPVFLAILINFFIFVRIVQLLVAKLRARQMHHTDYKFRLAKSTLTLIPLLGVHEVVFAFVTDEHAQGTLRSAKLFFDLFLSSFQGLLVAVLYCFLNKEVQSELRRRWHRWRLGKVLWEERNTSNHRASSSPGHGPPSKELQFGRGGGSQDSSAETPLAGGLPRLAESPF

B1: exendin-4 peptide analogue SEQ ID NO: 24 (peptide)
peptide: Y[Aib]QGTFTSDLSIQK([γGlu-Palmitoyl])EKRAV[Aib]LFIEWLKAGGPSSGAPPPS-NH2
modifications: N-terminus assumed
SMILES: CCCCCCCCCCCCCCCC(=O)N[C@@H](CCC(=O)NCCCC[C@H](NC(=O)[C@H](CCC(N)=O)NC(=O)[C@@H](NC(=O)[C@H](CO)NC(=O)[C@H](CC(C)C)NC(=O)[C@H](CC(=O)O)NC(=O)[C@H](CO)NC(=O)[C@@H](NC(=O)[C@H](Cc1ccccc1)NC(=O)[C@@H](NC(=O)CNC(=O)[C@H](CCC(N)=O)NC(=O)C(C)(C)NC(=O)[C@@H](N)Cc1ccc(O)cc1)[C@@H](C)O)[C@@H](C)O)[C@@H](C)CC)C(=O)N[C@@H](CCC(=O)O)C(=O)N[C@@H](CCCCN)C(=O)N[C@@H](CCCNC(=N)N)C(=O)N[C@@H](C)C(=O)N[C@H](C(=O)NC(C)(C)C(=O)N[C@@H](CC(C)C)C(=O)N[C@@H](Cc1ccccc1)C(=O)N[C@H](C(=O)N[C@@H](CCC(=O)O)C(=O)N[C@@H](Cc1c[nH]c2ccccc12)C(=O)N[C@@H](CC(C)C)C(=O)N[C@@H](CCCCN)C(=O)N[C@@H](C)C(=O)NCC(=O)NCC(=O)N1CCC[C@H]1C(=O)N[C@@H](CO)C(=O)N[C@@H](CO)C(=O)NCC(=O)N[C@@H](C)C(=O)N1CCC[C@H]1C(=O)N1CCC[C@H]1C(=O)N1CCC[C@H]1C(=O)N[C@@H](CO)C(N)=O)[C@@H](C)CC)C(C)C)C(=O)O
With B1 the “EC50 hGIP R” value (human GIP receptor) was 0.0104 nM, the “EC50 hGLP-1 R” value (human GLP-1 receptor) was 0.0192 nM and the “EC50 hGLUC R” value (human glucagon receptor) was 0.284 nM.

B2: exendin-4 peptide analogue SEQ ID NO: 25 (peptide)
peptide: Y[Aib]QGTFTSDLSIQK(Palmitoyl)EKRAV[Aib]LFIEWLKAGGPSSGAPPPS-NH2
modifications: N-terminus assumed
SMILES: CCCCCCCCCCCCCCCC(=O)NCCCC[C@H](NC(=O)[C@H](CCC(N)=O)NC(=O)[C@@H](NC(=O)[C@H](CO)NC(=O)[C@H](CC(C)C)NC(=O)[C@H](CC(=O)O)NC(=O)[C@H](CO)NC(=O)[C@@H](NC(=O)[C@H](Cc1ccccc1)NC(=O)[C@@H](NC(=O)CNC(=O)[C@H](CCC(N)=O)NC(=O)C(C)(C)NC(=O)[C@@H](N)Cc1ccc(O)cc1)[C@@H](C)O)[C@@H](C)O)[C@@H](C)CC)C(=O)N[C@@H](CCC(=O)O)C(=O)N[C@@H](CCCCN)C(=O)N[C@@H](CCCNC(=N)N)C(=O)N[C@@H](C)C(=O)N[C@H](C(=O)NC(C)(C)C(=O)N[C@@H](CC(C)C)C(=O)N[C@@H](Cc1ccccc1)C(=O)N[C@H](C(=O)N[C@@H](CCC(=O)O)C(=O)N[C@@H](Cc1c[nH]c2ccccc12)C(=O)N[C@@H](CC(C)C)C(=O)N[C@@H](CCCCN)C(=O)N[C@@H](C)C(=O)NCC(=O)NCC(=O)N1CCC[C@H]1C(=O)N[C@@H](CO)C(=O)N[C@@H](CO)C(=O)NCC(=O)N[C@@H](C)C(=O)N1CCC[C@H]1C(=O)N1CCC[C@H]1C(=O)N1CCC[C@H]1C(=O)N[C@@H](CO)C(N)=O)[C@@H](C)CC)C(C)C
With B2 the “EC50 hGIP R” value (human GIP receptor) was 0.176 nM, the “EC50 hGLP-1 R” value (human GLP-1 receptor) was 0.037 nM and the “EC50 hGLUC R” value (human glucagon receptor) was 2.03 nM.

B3: exendin-4 peptide analogue SEQ ID NO: 26 (peptide)
peptide: Y[Aib]QGTFTSDLSIQK([γGlu-Palmitoyl])EKRAV[Aib]EFIEWLKAGGPSSGAPPPS-NH2
modifications: N-terminus assumed
SMILES: CCCCCCCCCCCCCCCC(=O)N[C@@H](CCC(=O)NCCCC[C@H](NC(=O)[C@H](CCC(N)=O)NC(=O)[C@@H](NC(=O)[C@H](CO)NC(=O)[C@H](CC(C)C)NC(=O)[C@H](CC(=O)O)NC(=O)[C@H](CO)NC(=O)[C@@H](NC(=O)[C@H](Cc1ccccc1)NC(=O)[C@@H](NC(=O)CNC(=O)[C@H](CCC(N)=O)NC(=O)C(C)(C)NC(=O)[C@@H](N)Cc1ccc(O)cc1)[C@@H](C)O)[C@@H](C)O)[C@@H](C)CC)C(=O)N[C@@H](CCC(=O)O)C(=O)N[C@@H](CCCCN)C(=O)N[C@@H](CCCNC(=N)N)C(=O)N[C@@H](C)C(=O)N[C@H](C(=O)NC(C)(C)C(=O)N[C@@H](CCC(=O)O)C(=O)N[C@@H](Cc1ccccc1)C(=O)N[C@H](C(=O)N[C@@H](CCC(=O)O)C(=O)N[C@@H](Cc1c[nH]c2ccccc12)C(=O)N[C@@H](CC(C)C)C(=O)N[C@@H](CCCCN)C(=O)N[C@@H](C)C(=O)NCC(=O)NCC(=O)N1CCC[C@H]1C(=O)N[C@@H](CO)C(=O)N[C@@H](CO)C(=O)NCC(=O)N[C@@H](C)C(=O)N1CCC[C@H]1C(=O)N1CCC[C@H]1C(=O)N1CCC[C@H]1C(=O)N[C@@H](CO)C(N)=O)[C@@H](C)CC)C(C)C)C(=O)O
With B3 the “EC50 hGIP R” value (human GIP receptor) was 0.0053 nM, the “EC50 hGLP-1 R” value (human GLP-1 receptor) was 0.0176 nM and the “EC50 hGLUC R” value (human glucagon receptor) was 0.3 nM.

B4: exendin-4 peptide analogue SEQ ID NO: 27 (peptide)
peptide: Y[Aib]QGTFTSDLSIQK([γGlu-Palmitoyl])DKRAA[Aib]LFIEWLKAGGPSSGAPPPS-NH2
modifications: N-terminus assumed
SMILES: CCCCCCCCCCCCCCCC(=O)N[C@@H](CCC(=O)NCCCC[C@H](NC(=O)[C@H](CCC(N)=O)NC(=O)[C@@H](NC(=O)[C@H](CO)NC(=O)[C@H](CC(C)C)NC(=O)[C@H](CC(=O)O)NC(=O)[C@H](CO)NC(=O)[C@@H](NC(=O)[C@H](Cc1ccccc1)NC(=O)[C@@H](NC(=O)CNC(=O)[C@H](CCC(N)=O)NC(=O)C(C)(C)NC(=O)[C@@H](N)Cc1ccc(O)cc1)[C@@H](C)O)[C@@H](C)O)[C@@H](C)CC)C(=O)N[C@@H](CC(=O)O)C(=O)N[C@@H](CCCCN)C(=O)N[C@@H](CCCNC(=N)N)C(=O)N[C@@H](C)C(=O)N[C@@H](C)C(=O)NC(C)(C)C(=O)N[C@@H](CC(C)C)C(=O)N[C@@H](Cc1ccccc1)C(=O)N[C@H](C(=O)N[C@@H](CCC(=O)O)C(=O)N[C@@H](Cc1c[nH]c2ccccc12)C(=O)N[C@@H](CC(C)C)C(=O)N[C@@H](CCCCN)C(=O)N[C@@H](C)C(=O)NCC(=O)NCC(=O)N1CCC[C@H]1C(=O)N[C@@H](CO)C(=O)N[C@@H](CO)C(=O)NCC(=O)N[C@@H](C)C(=O)N1CCC[C@H]1C(=O)N1CCC[C@H]1C(=O)N1CCC[C@H]1C(=O)N[C@@H](CO)C(N)=O)[C@@H](C)CC)C(=O)O
B4 was tested, and the “EC50 hGIP R” value (human GIP receptor) was 0.0826 nM, the “EC50 hGLP-1 R” value (human GLP-1 receptor) was 0.0147 nM and the “EC50 hGLUC R” value (human glucagon receptor) was 0.0389 nM.

B5: exendin-4 peptide analogue SEQ ID NO: 28 (peptide)
peptide: Y[Aib]HGTFTSDLSKQK([γGlu-Palmitoyl])EKRAA[Aib]EFIEWLKNTGPSSGAPPPS-NH2
modifications: N-terminus assumed
SMILES: CCCCCCCCCCCCCCCC(=O)N[C@@H](CCC(=O)NCCCC[C@H](NC(=O)[C@H](CCC(N)=O)NC(=O)[C@H](CCCCN)NC(=O)[C@H](CO)NC(=O)[C@H](CC(C)C)NC(=O)[C@H](CC(=O)O)NC(=O)[C@H](CO)NC(=O)[C@@H](NC(=O)[C@H](Cc1ccccc1)NC(=O)[C@@H](NC(=O)CNC(=O)[C@H](Cc1c[nH]cn1)NC(=O)C(C)(C)NC(=O)[C@@H](N)Cc1ccc(O)cc1)[C@@H](C)O)[C@@H](C)O)C(=O)N[C@@H](CCC(=O)O)C(=O)N[C@@H](CCCCN)C(=O)N[C@@H](CCCNC(=N)N)C(=O)N[C@@H](C)C(=O)N[C@@H](C)C(=O)NC(C)(C)C(=O)N[C@@H](CCC(=O)O)C(=O)N[C@@H](Cc1ccccc1)C(=O)N[C@H](C(=O)N[C@@H](CCC(=O)O)C(=O)N[C@@H](Cc1c[nH]c2ccccc12)C(=O)N[C@@H](CC(C)C)C(=O)N[C@@H](CCCCN)C(=O)N[C@@H](CC(N)=O)C(=O)N[C@H](C(=O)NCC(=O)N1CCC[C@H]1C(=O)N[C@@H](CO)C(=O)N[C@@H](CO)C(=O)NCC(=O)N[C@@H](C)C(=O)N1CCC[C@H]1C(=O)N1CCC[C@H]1C(=O)N1CCC[C@H]1C(=O)N[C@@H](CO)C(N)=O)[C@@H](C)O)[C@@H](C)CC)C(=O)O
In the case of B5, the “EC50 hGIP R” value (human GIP receptor) is reported as 0.0368 nM, the “EC50 hGLP-1 R” value (human GLP-1 receptor) is reported as 0.0583 nM and the “EC50 hGLUC R” value (human glucagon receptor) is reported as 0.0048 nM.

B6: exendin-4 peptide analogue SEQ ID NO: 29 (peptide)
peptide: Y[Aib]EGTFTSDLSIQK([γGlu-Stearoyl])ESKAA[Aib]EFIEWLKAGGPSSGAPPPS-NH2
modifications: N-terminus assumed
SMILES: CCCCCCCCCCCCCCCCCC(=O)N[C@@H](CCC(=O)NCCCC[C@H](NC(=O)[C@H](CCC(N)=O)NC(=O)[C@@H](NC(=O)[C@H](CO)NC(=O)[C@H](CC(C)C)NC(=O)[C@H](CC(=O)O)NC(=O)[C@H](CO)NC(=O)[C@@H](NC(=O)[C@H](Cc1ccccc1)NC(=O)[C@@H](NC(=O)CNC(=O)[C@H](CCC(=O)O)NC(=O)C(C)(C)NC(=O)[C@@H](N)Cc1ccc(O)cc1)[C@@H](C)O)[C@@H](C)O)[C@@H](C)CC)C(=O)N[C@@H](CCC(=O)O)C(=O)N[C@@H](CO)C(=O)N[C@@H](CCCCN)C(=O)N[C@@H](C)C(=O)N[C@@H](C)C(=O)NC(C)(C)C(=O)N[C@@H](CCC(=O)O)C(=O)N[C@@H](Cc1ccccc1)C(=O)N[C@H](C(=O)N[C@@H](CCC(=O)O)C(=O)N[C@@H](Cc1c[nH]c2ccccc12)C(=O)N[C@@H](CC(C)C)C(=O)N[C@@H](CCCCN)C(=O)N[C@@H](C)C(=O)NCC(=O)NCC(=O)N1CCC[C@H]1C(=O)N[C@@H](CO)C(=O)N[C@@H](CO)C(=O)NCC(=O)N[C@@H](C)C(=O)N1CCC[C@H]1C(=O)N1CCC[C@H]1C(=O)N1CCC[C@H]1C(=O)N[C@@H](CO)C(N)=O)[C@@H](C)CC)C(=O)O
With B6 the “EC50 hGIP R” value (human GIP receptor) was 0.013 nM, the “EC50 hGLP-1 R” value (human GLP-1 receptor) was 0.0072 nM and the “EC50 hGLUC R” value (human glucagon receptor) was 15 nM.
